According to paper doi:10.1101/2020.12.04.411645 (bioRxiv, 2020):

Target: untagged full-length RAC1 Q61L (UniProt P63000 1-192, Q61L)
Assay: SPR

Kd: 18.3 µM
B1: MBP-tagged full-length CYRI-B (natural protein)
chain: MGNLLKVLTCTDLEQGPNFFLDFENAQPTESEKEIYNQVNVVLKDAEGILEDLQSYRGAGHEIREAIQHPADEKLQEKAWGAVVPLVGKLKKFYEFSQRLEAALRGLLGALTSTPYSPTQHLEREQALAKQFAEILHFTLRFDELKMTNPAIQNDFSYYRRTLSRMRINNVPAEGENEVNNELANRMSLFYAEATPMLKTLSDATTKFVSENKNLPIENTTDCLSTMASVCRVMLETPEYRSRFTNEETVSFCLRVMVGVIILYDHVHPVGAFAKTSKIDMKGCIKVLKDQPPNSVEGLLNALRYTTKHLNDETTSKQIRSMLQ
